Experimental findings from PMC5380708, “Optimized synthesis of novel prenyl ferulate performed by feruloyl esterases from Myceliophthora thermophila in microemulsions” (Applied Microbiology and Biotechnology, 2017) are described below.

For data set [1], the system named is T1, C=COC(=O)/C=C/c1ccc(O)c(OC)c1.
T1 construct: secreted, over-expressed in low-background M. thermophila C1 host
The data set is described as follows: transesterification rate by HPLC, nonlinear Michaelis-Menten fit. It is filed as biochemical, Thermothelomyces thermophilus. The settings on record: acyl donor, 200 mM prenol, n-hexane:t-butanol:100 mM MOPS-NaOH pH 6.0 19.8:74.7:5.5 v/v/v microemulsion, 40 °C, 8 h, error = SE. The source says:
transesterification rate by HPLC, nonlinear Michaelis-Menten fit on FaeA2

Substrate in data set [2]: C=COC(=O)/C=C/c1ccc(O)c(OC)c1
Described as above. Conditions: acyl donor, 200 mM prenol, n-hexane:t-butanol:100 mM MOPS-NaOH pH 6.0 53.4:43.4:3.2 v/v/v microemulsion, 40 °C, 8 h, error = SE. The class given is biochemical, Thermothelomyces thermophilus. An excerpt: transesterification rate by HPLC, nonlinear Michaelis-Menten fit on MtFae1a

For the molecule FaeA2 (Thermothelomyces thermophilus), the Km in data set [1] is given as 46.5 (18.1) mM.

B1: MtFae1a (Thermothelomyces thermophilus ATCC 42464) (protein)
chain: ASLQEVTEFGDNPTNIQMYIYVPDQLDTNPPVIVALHPCGGSAQQWFSGTQLPSYADDNGFILIYPSTPHMSNCWDIQNPDTLTHGQGGDALGIVSMVNYTLDKHSGDSSRVYAMGFSSGGMMTNQLAGSYPDVFEAGAVYSGVAFGCAAGAESATPFSPNQTCAQGLQKTAQEWGDFVRNAYAGYTGRRPRMQIFHGLEDTLVRPQCAEEALKQWSNVLGVELTQEVSGVPSPGWTQKIYGDGTQLQGFFGQGIGHQSTVNEQQLLQWFGLI
notes: secreted from Pichia pastoris X33, glycosylated
On to B1, for which the Km in data set [2] was 81.2 (22.3) mM.
